Reference: PMC8309402, “Evolutionary Implications of a Peroxidase with High Affinity for Cinnamyl Alcohols from Physcomitrium patens, a Non-Vascular Plant” (Plants, 2021)

Tests used:
purified protein [1] = substrate: COc1cc(/C=C/CO)cc(OC)c1O; experiment: purified protein; type: biochemical, Physcomitrium patens; details: 0.5 mM H2O2 (saturating), 50 mM sodium acetate pH 5.0, 1-110 μM substrate
purified protein [2] = substrate: COc1cc(/C=C/CO)ccc1O; experiment: purified protein; type: biochemical, Physcomitrium patens; details: 0.5 mM H2O2 (saturating), 50 mM sodium acetate pH 5.0, 5-100 μM substrate

B1: PpaPrx19 (Physcomitrium patens) (protein)
chain: TTDFYAKSCPRIHSIVKAEIKKAVNVEKRMAASLIRLHFHDCFVHGCDGSILLDSIPGMDSEKFAPPNDRSARGYEAIDAIKVALEKACPRTVSCADILAIAYRDSAVEVGLVPEYPVPFGRRDSLRAAPIAEVNLRLPGPDFDISTLKASFANQSLDERDLVALSGAHTIGRVRCQFVRLFLNDPGTNADFKKELARLCAPTVDAFTLQNLDLKTPDKFDNNYYKNLRRGEGIIRSDQVLWSSEGTHQKITKDFAENQENFFRQFIESSIKMGKIKPPPGSPSEIRLNCHQANPRPLIEQVVAVE
notes: native, purified from gametophores (ammonium sulfate, phenyl Sepharose, SP Sepharose); mature secreted protein, 332 aa precursor incl; 26 aa N-terminal signal peptide (predicted); 46 kDa lipase (XP_001755452) co-purified
- Km (purified protein [1]): 20.8 µM
- kcat (purified protein [1]): 281 s⁻¹
- kcat/Km (purified protein [1]): 1.35e+07 M⁻¹ s⁻¹
- Km (purified protein [2]): 16.7 µM
- kcat (purified protein [2]): 3940 s⁻¹
- kcat/Km (purified protein [2]): 2.36e+08 M⁻¹ s⁻¹
